Target: WDR5-RbBP5-Ash2L subcomplex (UniProt P61964)

## MLL^3745(R3765A)
  H3K4 dimethylation activity of the MLL1 core complex (MALDI-TOF mass spectrometry): a loss of H3K4 dimethylation activity of the MLL1 core complex when Arg-3765 of the MLL1 component is replaced by an alanine

— patent US20130203167
